We go through three molecules from paper PMC2855817 (Biochemistry, 2010).

Like-named read-outs stand apart in the source and are kept apart here.

The target of data set [1] is L29P variant of Pseudomonas fluorescens (SIK WI) aryl esterase (PFE) (Pseudomonas fluorescens SIK WI). The data set can be described thus: crystal structure.
In data set [2] the target is T1, PFE (Pseudomonas fluorescens esterase; aryl esterase) (Pseudomonas fluorescens, UniProt P22862, L30P).
T1 sequence (P22862 2-272 L30P): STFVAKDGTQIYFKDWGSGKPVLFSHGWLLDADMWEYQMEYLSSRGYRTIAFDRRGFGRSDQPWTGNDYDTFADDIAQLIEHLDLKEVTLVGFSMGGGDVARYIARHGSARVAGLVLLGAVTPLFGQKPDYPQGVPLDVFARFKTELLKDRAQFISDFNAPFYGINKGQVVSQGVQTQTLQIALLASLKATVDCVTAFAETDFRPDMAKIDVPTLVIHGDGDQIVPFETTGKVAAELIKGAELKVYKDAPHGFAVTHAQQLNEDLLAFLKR
The conditions noted are these: pH 5.5, 23 °C.

The target of data set [3] is T1, PFE (Pseudomonas fluorescens esterase; aryl esterase). As to conditions: pH 5.5, 23 °C; estimated upper limit.
A further data set deals with O=C1CCCCCO1. The data set can be described thus: purified protein. The format is biochemical, Pseudomonas fluorescens. As to conditions: pH 7.2, BES, 23 °C.

For the molecule “L29P variant of Pseudomonas fluorescens (SIK WI) aryl esterase (PFE) (enzyme)”, the stoichiometry N (commonly the number of molecules, sites or subunits per partner or assembly) in data set [1] is 6.
For `CC(=O)OO` [peracetic acid], the Km – broadly, the substrate concentration at which the rate is half of its maximum – was 41 ± 5 µM in data set [2] and < 3 µM in data set [3].
For “PFE (Pseudomonas fluorescens esterase; aryl esterase) (Pseudomonas fluorescens; L30P)”, in the data set on O=C1CCCCCO1, the Km was found to be 39000 ± 1000 µM; the kcat (usually the number of substrate molecules converted per active site and unit of time at saturation) worked out at 11 ± 1 s⁻¹; the catalytic efficiency (kcat/Km) (as a rule, the second-order rate constant that governs catalysis at low substrate concentration) amounted to 280 M⁻¹ s⁻¹.
